Values of other authors in publication PMC4340704.

Biological target: Cys106 (UniProt position 106, LIAAICAGPTA)
Details: reduced Cys106 thiol/thiolate implied; otherwise not stated

For “DJ-1 (Parkinson disease protein 7) (Homo sapiens)”, which pKa is on record?
Its pKa is 5.4.
